Data as given in patent publication US20110011742, “METHOD FOR THE PURIFICATION OF BIOLOGICAL MACROMOLECULES” (published 2011).

B1: YZ-7 (NF-kb probe) (dsDNA)
DNA 1: TCCTAGCTTCAGAGGGGACTTTCCGAGAGGACCTGAAGAAATGGTTTTGAATCAT
DNA 2: CCTCTCGGAAAGTCCCCTCTGAAGCTAGGA
B2: YZ-11 (ER-alpha probe) (dsDNA)
DNA 1: CCTGCCAGGTCGCGCTGCCCTCCTTCTACCATGCCTTAGGAGAATTGTTTTGTTT
DNA 2: GGTAGAAGGAGGGCAGCGCGACCTGGCAGG

Experiments:
Sp1 [1] = molecular target: T1, Sp1 (UniProt P08047 P08047:2-785); experiment: probe mixture, gel-separated complex hybridised to microarray; signal 0 at the tag-complementary spot Y-14 (Y-7t also 0); room temperature 30 min; details: tags: Promega recombinant; label: 5'-Cy3 on YZ-7f (microarray); partially double-stranded, 3' single-strand tag on YZ-7f
Procedure: (§1) The Sp1 protein was mixed with a group of Cy3 labeled probes (YZ-7, YZ-9 and YZ-11) at room temperature for 30 minutes and then the protein/DNA complex was separated on the polyacrylamide column using the separation method described in Example 1. The collected protein/DNA complex was concentrated, the buffer changed to 5×SSC, 0.1% SDS, and the DNA hybridized to a microarray slide containing oligonucleotide DNA sequences shown in Table 2. Small amounts of YZ-2 and YZ-4 were added (shown in Table 3 and complementary to the sequences of YZ-1 and YZ-3). These sequences, shown in Table 3, serve as a positive control and reference signal. Only the Sp1 and control probes yielded positive signals (see Table 4). […] The microarray results (shown in Table 4) was consistent with the result from the gel shift assay.

Sp1 [2] = molecular target: T1, Sp1; experiment: probe mixture, gel-separated complex hybridised to microarray; signal 0 at Y-11t; room temperature 30 min; details: tags: Promega recombinant; label: IRDye 700 (gel) or 5'-Cy3 on YZ-11f (microarray); partially double-stranded, 3' single-strand tag on YZ-11f
Procedure: as §1

T1 sequence (P08047 2-785, one chain of several): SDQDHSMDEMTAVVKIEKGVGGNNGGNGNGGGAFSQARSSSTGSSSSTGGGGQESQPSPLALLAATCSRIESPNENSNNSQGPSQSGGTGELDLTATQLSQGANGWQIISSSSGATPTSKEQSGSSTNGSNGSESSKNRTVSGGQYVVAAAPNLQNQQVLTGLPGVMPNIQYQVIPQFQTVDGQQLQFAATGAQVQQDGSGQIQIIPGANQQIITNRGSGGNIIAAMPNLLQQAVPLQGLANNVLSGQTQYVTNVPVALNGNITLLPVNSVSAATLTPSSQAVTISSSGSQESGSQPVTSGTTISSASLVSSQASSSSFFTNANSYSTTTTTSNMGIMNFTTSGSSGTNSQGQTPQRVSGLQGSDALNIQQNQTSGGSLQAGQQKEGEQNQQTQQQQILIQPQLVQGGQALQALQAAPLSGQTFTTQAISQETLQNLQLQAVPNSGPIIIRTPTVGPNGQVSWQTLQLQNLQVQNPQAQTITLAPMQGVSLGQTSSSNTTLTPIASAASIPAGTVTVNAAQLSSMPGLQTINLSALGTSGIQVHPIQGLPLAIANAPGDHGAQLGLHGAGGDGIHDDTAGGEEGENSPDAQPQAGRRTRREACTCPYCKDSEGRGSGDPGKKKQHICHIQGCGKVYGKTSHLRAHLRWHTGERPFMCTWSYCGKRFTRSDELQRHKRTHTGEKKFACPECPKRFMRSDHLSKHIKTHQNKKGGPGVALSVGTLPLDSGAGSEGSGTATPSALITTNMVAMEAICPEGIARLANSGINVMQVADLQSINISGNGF

Binder	binding result (Sp1 [1])	binding result (Sp1 [2])
B1	no binding	
B2		no binding
